The source of these data is patent US20160091498A1 (H LEE MOFFITT CANCER CENTER AND RESEARCH INSTITUTE, published 2016).

Primed or numbered codes have the meaning given here. No end group written: not given here. Biotin′ = not defined here

This experiment deals with T1, NPAT (UniProt Q14207 1-1427).
T1 construct: other lysate proteins were present
T1 sequence (looked up): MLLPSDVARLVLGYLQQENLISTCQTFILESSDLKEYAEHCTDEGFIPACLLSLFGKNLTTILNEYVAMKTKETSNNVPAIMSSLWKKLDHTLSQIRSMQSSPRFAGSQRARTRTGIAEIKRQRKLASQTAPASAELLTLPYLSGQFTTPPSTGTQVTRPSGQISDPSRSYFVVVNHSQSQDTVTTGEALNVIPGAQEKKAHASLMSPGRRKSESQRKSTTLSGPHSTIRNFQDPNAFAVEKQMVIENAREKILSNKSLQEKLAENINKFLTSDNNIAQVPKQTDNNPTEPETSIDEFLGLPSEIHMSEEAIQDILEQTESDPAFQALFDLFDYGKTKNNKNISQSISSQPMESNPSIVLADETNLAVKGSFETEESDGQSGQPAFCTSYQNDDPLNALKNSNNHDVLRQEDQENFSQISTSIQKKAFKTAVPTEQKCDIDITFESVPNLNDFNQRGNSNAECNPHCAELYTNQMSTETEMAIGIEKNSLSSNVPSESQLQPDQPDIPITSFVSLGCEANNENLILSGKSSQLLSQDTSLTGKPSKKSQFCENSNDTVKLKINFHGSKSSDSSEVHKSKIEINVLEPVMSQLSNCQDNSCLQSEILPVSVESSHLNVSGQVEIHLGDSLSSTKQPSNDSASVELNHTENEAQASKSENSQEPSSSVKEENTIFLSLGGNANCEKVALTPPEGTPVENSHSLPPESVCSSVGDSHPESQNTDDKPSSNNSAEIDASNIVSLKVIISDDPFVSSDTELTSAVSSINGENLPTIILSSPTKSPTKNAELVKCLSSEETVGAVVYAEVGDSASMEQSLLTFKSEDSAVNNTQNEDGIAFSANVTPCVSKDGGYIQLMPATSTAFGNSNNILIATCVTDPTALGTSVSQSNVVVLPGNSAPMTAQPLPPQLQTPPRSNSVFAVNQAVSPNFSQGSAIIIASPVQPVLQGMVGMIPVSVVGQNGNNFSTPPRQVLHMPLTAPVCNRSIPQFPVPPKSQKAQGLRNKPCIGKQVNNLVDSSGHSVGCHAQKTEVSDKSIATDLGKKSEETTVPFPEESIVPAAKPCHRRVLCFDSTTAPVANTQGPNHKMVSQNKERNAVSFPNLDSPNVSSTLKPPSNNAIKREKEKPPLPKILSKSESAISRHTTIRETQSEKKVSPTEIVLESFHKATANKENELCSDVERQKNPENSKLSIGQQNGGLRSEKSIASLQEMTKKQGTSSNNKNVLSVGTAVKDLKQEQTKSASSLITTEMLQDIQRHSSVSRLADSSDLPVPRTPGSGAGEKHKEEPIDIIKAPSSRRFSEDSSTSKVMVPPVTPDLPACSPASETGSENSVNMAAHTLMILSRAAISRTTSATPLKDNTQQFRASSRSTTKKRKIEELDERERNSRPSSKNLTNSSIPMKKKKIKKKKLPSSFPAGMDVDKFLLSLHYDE
Briefly: filter binding: peptide on nitrocellulose, HEK293 lysate, NPAT immunoblot. In general terms: A western blot detects proteins with antibodies after separation by electrophoresis.

B1: H2B(25-49) (peptide)
peptide: DGKKRKRSRKESYSVYVYKVLKQVH-{Biotin′}
notes: also called unphosphorylated H2B; human histone H2B peptide spanning amino acids 25-49
For B1, the binding result is given as “binds”.
